Results published in PMC7969019 (Nucleic Acids Research, 2020).
Where no end group is shown, it is not given here. [ ]: non-standard residue; d: D form. pT = C[C@@H](OP(=O)(O)O)[C@H](N)C(=O)O; pS = N[C@@H](COP(=O)(O)O)C(=O)O

Target: T1, human TFIIH p62 residues 1-158 (tandem PH and BSD1 domains) (human, UniProt P32780 1-158)
T1 sequence (looked up): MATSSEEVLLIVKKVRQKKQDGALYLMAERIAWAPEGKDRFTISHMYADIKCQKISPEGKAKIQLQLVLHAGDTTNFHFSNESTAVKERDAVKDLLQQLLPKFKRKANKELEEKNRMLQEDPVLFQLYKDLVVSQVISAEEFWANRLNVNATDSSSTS
Test: NMR titration

Binder: DDLML[pS]PDDIEQWF[pT]EDPGPDE (peptide, UniProt P04637 41-62, looked up) [Ser46- and Thr55-phosphorylated p53 (residues 41-62)]
- binding result: binds

Binder: AEEDEDDEDFVEVPEKEGYEP (peptide, UniProt Q2YD98 399-419, looked up) [UVSSA (residues 399-419)]
- binding result: binds

Binder: EEEEESENDWEEVEELSEP (peptide, UniProt Q01831 124-142, looked up) [XPC (residues 124-142)]
- binding result: binds

B1: TFIIEα (residues 378-439), acidic domain (domain or fragment, UniProt P29083 378-439, looked up)
chain: EEDEEEDDEFEEVADDPIVMVAGRPFSYSEVSQRPELVAQMTPEEKEAYIAMGQRMFEDLFE
- binding result: binds
